Measured values from publication PMC11507940 (bioRxiv, 2024).
Each block holds one binder with its values, some of them ahead of it.

What was measured:
[1] = biological target: Human recombinant fibroblast activation protein alpha (human) (UniProt Q12884); test: cross-linking + other: mass photometry
[2] = biological target: Biotinylated dipeptidyl peptidase IV (Homo sapiens, UniProt P27487, biotin); test: BLI
Sequence of Biotinylated dipeptidyl peptidase IV (P27487 39-766): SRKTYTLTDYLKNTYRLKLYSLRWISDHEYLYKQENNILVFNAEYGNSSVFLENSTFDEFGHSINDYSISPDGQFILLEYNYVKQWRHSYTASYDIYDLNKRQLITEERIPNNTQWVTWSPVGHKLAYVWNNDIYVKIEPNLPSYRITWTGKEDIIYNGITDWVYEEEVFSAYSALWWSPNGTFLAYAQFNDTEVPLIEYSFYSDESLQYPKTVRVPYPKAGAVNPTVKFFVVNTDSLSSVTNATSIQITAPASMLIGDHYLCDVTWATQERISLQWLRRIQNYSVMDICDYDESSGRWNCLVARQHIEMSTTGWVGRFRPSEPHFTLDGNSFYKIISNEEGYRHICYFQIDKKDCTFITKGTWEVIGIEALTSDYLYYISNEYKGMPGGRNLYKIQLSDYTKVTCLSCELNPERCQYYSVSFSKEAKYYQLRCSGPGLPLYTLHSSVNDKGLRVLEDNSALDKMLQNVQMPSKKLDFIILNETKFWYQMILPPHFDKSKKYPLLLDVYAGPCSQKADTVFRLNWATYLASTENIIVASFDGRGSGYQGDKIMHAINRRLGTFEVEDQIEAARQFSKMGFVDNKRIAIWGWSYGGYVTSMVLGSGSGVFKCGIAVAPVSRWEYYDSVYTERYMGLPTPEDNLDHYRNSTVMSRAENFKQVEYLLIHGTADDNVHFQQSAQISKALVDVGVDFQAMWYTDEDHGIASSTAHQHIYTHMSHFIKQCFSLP

Sequence of Human recombinant fibroblast activation protein alpha (human) (Q12884 39-757): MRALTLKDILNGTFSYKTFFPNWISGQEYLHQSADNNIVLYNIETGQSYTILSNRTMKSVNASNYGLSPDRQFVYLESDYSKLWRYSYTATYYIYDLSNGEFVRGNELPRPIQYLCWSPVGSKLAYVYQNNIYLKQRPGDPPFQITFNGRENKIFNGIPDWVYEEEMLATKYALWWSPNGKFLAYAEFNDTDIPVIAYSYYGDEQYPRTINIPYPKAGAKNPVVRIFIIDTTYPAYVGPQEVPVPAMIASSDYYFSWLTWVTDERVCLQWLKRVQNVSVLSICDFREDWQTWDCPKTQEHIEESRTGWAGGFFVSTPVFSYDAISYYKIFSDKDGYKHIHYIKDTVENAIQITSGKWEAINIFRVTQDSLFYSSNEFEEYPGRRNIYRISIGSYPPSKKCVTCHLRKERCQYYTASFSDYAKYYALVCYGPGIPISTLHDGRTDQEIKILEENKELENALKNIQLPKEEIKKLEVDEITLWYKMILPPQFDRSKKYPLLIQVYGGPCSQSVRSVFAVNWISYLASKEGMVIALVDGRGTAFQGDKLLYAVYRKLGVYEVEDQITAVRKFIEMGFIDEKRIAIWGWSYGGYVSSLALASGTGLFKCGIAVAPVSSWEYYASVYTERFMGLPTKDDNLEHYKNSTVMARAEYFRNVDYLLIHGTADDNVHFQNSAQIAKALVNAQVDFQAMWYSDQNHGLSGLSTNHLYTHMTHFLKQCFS

stoichiometry N [1]: 1
B1: SUMO-I3 (single domain antibody I3 fused to an N-terminal 6X His-SUMO-FLAG tag) (VHH)
VHH: EVQLVESGGGLVQPGGSLRLSCAASGFTFSSYAMSWVRQAPGKGLEWVSAINSGGGSTSYADSVKGRFTISRDNAKNTLYLQMNSLKPEDTAVYYCAKARTGWSLAVPSFGSWGQGTQVTVSS

binding result [2]: no binding (tested: 10 μM)
B2: MBP-I3 (single domain antibody I3 with an N-terminal MBP fusion and a C-terminal 6X His-tag) (VHH)
VHH: B1 VHH
